# Read-outs that look alike come from different tables or passages of the source.
# T1: human IL-12 p70 (UniProt P29460 23-328; P29459 23-219)
# T1 chain 1: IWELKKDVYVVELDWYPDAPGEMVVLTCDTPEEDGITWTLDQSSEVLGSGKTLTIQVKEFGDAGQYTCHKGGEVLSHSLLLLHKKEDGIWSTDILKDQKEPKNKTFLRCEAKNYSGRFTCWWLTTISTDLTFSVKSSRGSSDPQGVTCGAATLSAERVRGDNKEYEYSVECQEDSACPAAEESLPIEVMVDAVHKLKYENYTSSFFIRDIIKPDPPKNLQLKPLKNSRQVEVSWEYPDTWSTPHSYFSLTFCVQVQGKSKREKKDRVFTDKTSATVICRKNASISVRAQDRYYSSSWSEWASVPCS
# T1 chain 2: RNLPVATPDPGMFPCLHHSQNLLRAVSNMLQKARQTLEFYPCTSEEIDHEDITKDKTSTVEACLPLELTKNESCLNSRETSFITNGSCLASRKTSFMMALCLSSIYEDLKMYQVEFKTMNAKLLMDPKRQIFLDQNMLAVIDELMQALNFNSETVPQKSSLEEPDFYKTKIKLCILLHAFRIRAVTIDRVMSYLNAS
# B1: IL-12 (ligand)
# chain 1: IWELKKDVYVVELDWYPDAPGEMVVLTCDTPEEDGITWTLDQSSEVLGSGKTLTIQVKEFGDAGQYTCHKGGEVLSHSLLLLHKKEDGIWSTDILKDQKEPKNKTFLRCEAKNYSGRFTCWWLTTISTDLTFSVKSSRGSSDPQGVTCGAATLSAERVRGDNKEYEYSVECQEDSACPAAEESLPIEVMVDAVHKLKYENYTSSFFIRDIIKPDPPKNLQLKPLKNSRQVEVSWEYPDTWSTPHSYFSLTFCVQVQGKSKREKKDRVFTDKTSATVICRKNASISVRAQDRYYSSSWSEWASVPCS
# chain 2: RNLPVATPDPGMFPCLHHSQNLLRAVSNMLQKARQTLEFYPCTSEEIDHEDITKDKTSTVEACLPLELTKNESCLNSRETSFITNGSCLASRKTSFMMALCLSSIYEDLKMYQVEFKTMNAKLLMDPKRQIFLDQNMLAVIDELMQALNFNSETVPQKSSLEEPDFYKTKIKLCILLHAFRIRAVTIDRVMSYLNAS
# Assays:
# [1] = molecular target: 78-34; assay: kinetic binding
# [2] = molecular target: Y61 L50Y; assay: kinetic binding
# [3] = molecular target: Y61 L94Y; assay: kinetic binding
# [4] = molecular target: B1; assay: receptor binding assay (RBA)
# [5] = molecular target: B1; assay: kinetic binding
# [6] = molecular target: T1, human IL-12 p70; assay: receptor binding assay (RBA)
# [7] = molecular target: T1, human IL-12 p70; assay: kinetic binding
# [8] = molecular target: T1, human IL-12 p70; assay: receptor binding assay (RBA)
binder,measurement,setting,value
B1,koff,[1],0.0164 s⁻¹
same,Kd,[2],0.138 nM
same,Kd,[3],0.341 nM
"Y61 (antibody, V domains shown) VH: QVQLVQSGGGVVQPGRSLRLSCAASGFTFSSYGMHWVRQAPGKGLEWVAFIRYDGSNKYYADSVKGRFTISRDNSKNTLYLQMKSLRAEDTAVYYCKTHGSHDNWGQGTMVTVSS VL: SYVLTQPPSVSGTPGQRVTISCSGGRSNIGSNTVKWYQQLPGTAPKLLIYGNDQRPSGVPDRFSGSKSGTSASLAITGVQAEDEADYYCQSYDRGTHPALLFGTGTKVTVLG",IC50,[4],0.016 nM
same,Kd,[5],0.604 nM
"J695 (antibody, V domains shown) VH: QVQLVESGGGVVQPGRSLRLSCAASGFTFSSYGMHWVRQAPGKGLEWVAFIRYDGSNKYYADSVKGRFTISRDNSKNTLYLQMNSLRAEDTAVYYCKTHGSHDNWGQGTMVTVSS VL: QSVLTQPPSVSGAPGQRVTISCSGSRSNIGSNTVKWYQQLPGTAPKLLIYYNDQRPSGVPDRFSGSKSGTSASLAITGLQAEDEADYYCQSYDRYTHPALLFGTGTKVTVLG",IC50,[6],0.05 nM
"103-14 (antibody, V domains shown) VH: QVQLVQSGGGVVQPGRSLRLSCAASGFTFSSYGMHWVRQAPGKGLEWVAFIRYDGSNKYYADSVKGRFTISRDNSKNTLYLQMKSLRAEDTAVYYCKTHGSHDNWGQGTMVTVSS VL: SYVLTQPPSVSGTPGQRVTISCSGGRSNIGSNTVKWYQQLPGTAPKLLIYGNDQRPSGVPDRFSGSKSGTSASLAITGVQAEDEADYYCQSYDRGFTGSMVFGTGTKVTVL",koff,[7],0.00067 s⁻¹
same,IC50,[8],0.04 nM

# Reference: patent US20120288494A1 (published 2012)
